Patent US20140242080A1 (Hoffmann-La Roche, published 2014)

T1: hu-MCSP(D3 domain)-avi-his (human, UniProt Q6UVK1 1582-2224)
T1 construct: Recombinant D3 domain with avi and his tags; also called human MCSP(D3 domain)-avi-his; Human MCSP D3
T1 sequence: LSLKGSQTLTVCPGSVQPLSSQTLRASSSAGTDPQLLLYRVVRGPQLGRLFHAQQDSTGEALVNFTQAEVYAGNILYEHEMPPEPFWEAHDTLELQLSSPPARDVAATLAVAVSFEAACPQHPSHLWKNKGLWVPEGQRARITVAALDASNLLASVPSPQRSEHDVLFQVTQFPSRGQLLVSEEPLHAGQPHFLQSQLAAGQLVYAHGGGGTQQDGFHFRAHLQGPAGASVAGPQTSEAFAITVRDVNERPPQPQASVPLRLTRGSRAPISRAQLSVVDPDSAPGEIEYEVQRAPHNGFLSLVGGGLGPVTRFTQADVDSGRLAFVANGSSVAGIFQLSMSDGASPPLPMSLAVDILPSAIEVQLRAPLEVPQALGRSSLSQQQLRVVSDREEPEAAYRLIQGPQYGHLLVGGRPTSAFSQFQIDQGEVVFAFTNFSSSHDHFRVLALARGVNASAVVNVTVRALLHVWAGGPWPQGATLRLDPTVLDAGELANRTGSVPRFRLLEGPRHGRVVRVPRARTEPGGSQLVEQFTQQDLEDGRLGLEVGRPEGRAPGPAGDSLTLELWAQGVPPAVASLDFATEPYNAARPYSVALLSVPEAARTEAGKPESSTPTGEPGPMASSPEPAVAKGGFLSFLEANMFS

B1: 2 + 1 IgG Crossfab; CL/CH1 exchange (M4-3 ML2/V9) (anti-MCSP/anti-huCD3) (bispecific antibody)
chain 1: DIQMTQSPSSLSASVGDRVTITCRASQDIRNYLNWYQQKPGKAPKLLIYYTSRLESGVPSRFSGSGSGTDYTLTISSLQPEDFATYYCQQGNTLPWTFGQGTKVEIKSSASTKGPSVFPLAPSSKSTSGGTAALGCLVKDYFPEPVTVSWNSGALTSGVHTFPAVLQSSGLYSLSSVVTVPSSSLGTQTYICNVNHKPSNTKVDKKVEPKSC
chain 2: not shown
chain 3: QVQLQESGPGLVKPSQTLSLTCTVSGGSITSGYYWNWIRQHPGKGLEWIGYITYDGSNNYNPSLKSRVTISRDTSKNQFSLKLSSVTAADTAVYYCADFDYWGQGTLVTVSSASTKGPSVFPLAPSSKSTSGGTAALGCLVKDYFPEPVTVSWNSGALTSGVHTFPAVLQSSGLYSLSSVVTVPSSSLGTQTYICNVNHKPSNTKVDKKVEPKSCDKTHTCPPCPAPEAAGGPSVFLFPPKPKDTLMISRTPEVTCVVVDVSHEDPEVKFNWYVDGVEVHNAKTKPREEQYNSTYRVVSVLTVLHQDWLNGKEYKCKVSNKALGAPIEKTISKAKGQPREPQVCTLPPSRDELTKNQVSLSCAVKGFYPSDIAVEWESNGQPENNYKTTPPVLDSDGSFFLVSKLTVDKSRWQQGNVFSCSVMHEALHNHYTQKSLSLSPGK
chain 4: not shown
B2: 2 + 1 IgG Crossfab; VL/VH exchange (M4-3 ML2/V9) (anti-MCSP/anti-huCD3) (bispecific antibody)
chain 1: EVQLVESGGGLVQPGGSLRLSCAASGYSFTGYTMNWVRQAPGKGLEWVALINPYKGVSTYNQKFKDRFTISVDKSKNTAYLQMNSLRAEDTAVYYCARSGYYGDSDWYFDVWGQGTLVTVSSASVAAPSVFIFPPSDEQLKSGTASVVCLLNNFYPREAKVQWKVDNALQSGNSQESVTEQDSKDSTYSLSSTLTLSKADYEKHKVYACEVTHQGLSSPVTKSFNRGEC
chain 2: not shown
chain 3: not shown
chain 4: QVQLQESGPGLVKPSQTLSLTCTVSGGSITSGYYWNWIRQHPGKGLEWIGYITYDGSNNYNPSLKSRVTISRDTSKNQFSLKLSSVTAADTAVYYCADFDYWGQGTLVTVSSASTKGPSVFPLAPSSKSTSGGTAALGCLVKDYFPEPVTVSWNSGALTSGVHTFPAVLQSSGLYSLSSVVTVPSSSLGTQTYICNVNHKPSNTKVDKKVEPKSCDKTHTCPPCPAPEAAGGPSVFLFPPKPKDTLMISRTPEVTCVVVDVSHEDPEVKFNWYVDGVEVHNAKTKPREEQYNSTYRVVSVLTVLHQDWLNGKEYKCKVSNKALGAPIEKTISKAKGQPREPQVCTLPPSRDELTKNQVSLSCAVKGFYPSDIAVEWESNGQPENNYKTTPPVLDSDGSFFLVSKLTVDKSRWQQGNVFSCSVMHEALHNHYTQKSLSLSPGK
B3: Parental M4-3/ML2 Fab (Fab, V domains shown)
VH: QVQLQESGPGLVKPSQTLSLTCTVSGGSITSGYYWNWIRQHPGKGLEWIGYITYDGSNNYNPSLKSRVTISRDTSKNQFSLKLSSVTAADTAVYYCADFDYWGQGTLVTVSS
VL: DIQMTQSPSSLSASVGDRVTITCRASQGIRNYLNWYQQKPGKAPKLLIYYTSSLHSGVPSRFSGSGSGTDFTLTISSLQPEDFATYYCQQYSKLPWTFGQGTKVEIK
notes: Soluble Fab with Flag tag, bacterial supernatant or purified; also called non-matured parental clone
B4: M4-3/ML2(G3) Fab (Fab, V domains shown)
VH: QVQLQESGPGLVKPSQTLSLTCTVSGGSITSGYYWNWIRQHPGKGLEWIGYITYDGSNNYNPSLKSRVTISRDTSKNQFSLKLSSVTAADTAVYYCADFDYWGQGTLVTVSS
VL: DIQMTQSPSSLSASVGDRVTITCRASQGIRNYLNWYQQKPGKAPKLLIYYTSSLHSGVPSRFSGSGSGTDYTLTISSLQPEDFATYYCQQYSALPWTFGQGTKVEIK
notes: Soluble Fab with Flag tag
B5: M4-3(B8)/ML2 Fab (Fab, V domains shown)
VH: QVQLQESGPGLVKPSQTLSLTCTVSGGSITSGYYWNWIRQHPGKGLEWIGYITFDGRNNYNPSLKSRVTISRDTSKNQFSLKLSSVTAADTAVYYCADFDYWGQGTLVTVSS
VL: DIQMTQSPSSLSASVGDRVTITCRASQGIRNYLNWYQQKPGKAPKLLIYYTSSLHSGVPSRFSGSGSGTDFTLTISSLQPEDFATYYCQQYSKLPWTFGQGTKVEIK
notes: Soluble Fab with Flag tag
B6: M4-3/ML2(C5) Fab (Fab, V domains shown)
VH: QVQLQESGPGLVKPSQTLSLTCTVSGGSITSGYYWNWIRQHPGKGLEWIGYITYDGSNNYNPSLKSRVTISRDTSKNQFSLKLSSVTAADTAVYYCADFDYWGQGTLVTVSS
VL: DIQMTQSPSSLSASVGDRVTITCRASRGIREYLNWYQQKPGKAPKLLIYYTGSLHSGVPSRFSGSGSGTDFTLTISSLQPEDFATYYCQQYSELPWTFGQGTKVEIK
notes: Soluble Fab with Flag tag
B7: M4-3(C1)/ML2 Fab (Fab, V domains shown)
VH: QVQLQESGPGLVKPSQTLSLTCTVSGGSITSGYYWNWIRQHPGKGLEWIGYITFDGSNNYNPSLKSRVTISRDTSKNQFSLKLSSVTAADTAVYYCADFDYWGQGTLVTVSS
VL: DIQMTQSPSSLSASVGDRVTITCRASQGIRNYLNWYQQKPGKAPKLLIYYTSSLHSGVPSRFSGSGSGTDFTLTISSLQPEDFATYYCQQYSKLPWTFGQGTKVEIK
notes: Soluble Fab with Flag tag
B8: M4-3(A7)/ML2 Fab (Fab, V domains shown)
VH: QVQLQESGPGLVKPSQTLSLTCTVSGGSITDGYYWNWIRQHPGKGLEWIGYITFDGRNNYNPSLKSRVTISRDTSKNQFSLKLSSVTAADTAVYYCADFDYWGQGTLVTVSS
VL: DIQMTQSPSSLSASVGDRVTITCRASQGIRNYLNWYQQKPGKAPKLLIYYTSSLHSGVPSRFSGSGSGTDFTLTISSLQPEDFATYYCQQYSKLPWTFGQGTKVEIK
notes: Soluble Fab with Flag tag
B9: M4-3/ML2(E10) Fab (Fab, V domains shown)
VH: QVQLQESGPGLVKPSQTLSLTCTVSGGSITSGYYWNWIRQHPGKGLEWIGYITYDGSNNYNPSLKSRVTISRDTSKNQFSLKLSSVTAADTAVYYCADFDYWGQGTLVTVSS
VL: DIQMTQSPSSLSASVGDRVTITCRASYGIRGYLNWYQQKPGKAPKLLIYYTSSLHSGVPSRFSGSGSGTDFTLTISSLQPEDFATYHCQQYSKLPWTFGQGTKVEIK
notes: Soluble Fab with Flag tag
B10: M4-3(D6)/ML2 Fab (Fab, V domains shown)
VH: QVQLQESGPGLVKPSQTLSLTCTVSGGSITSGYYWNWIRQHPGKGLEWIGYITFDGKNNYNPSLKSRVTISRDTSKNQFSLKLSSVTAADTAVYYCADFDYWGQGTLVTVSS
VL: DIQMTQSPSSLSASVGDRVTITCRASQGIRNYLNWYQQKPGKAPKLLIYYTSSLHSGVPSRFSGSGSGTDFTLTISSLQPEDFATYYCQQYSKLPWTFGQGTKVEIK
notes: Soluble Fab with Flag tag

The binders below were run against human MCSP expressed on tumor cells (Colo-38, WM266-4, A375, MV-3, HCT-116) (human, UniProt Q6UVK1 30-2322) (assay: cell-based or functional assay).
Sequence of human MCSP expressed on tumor cells (Colo-38, WM266-4, A375, MV-3, HCT-116) (Q6UVK1 30-2322): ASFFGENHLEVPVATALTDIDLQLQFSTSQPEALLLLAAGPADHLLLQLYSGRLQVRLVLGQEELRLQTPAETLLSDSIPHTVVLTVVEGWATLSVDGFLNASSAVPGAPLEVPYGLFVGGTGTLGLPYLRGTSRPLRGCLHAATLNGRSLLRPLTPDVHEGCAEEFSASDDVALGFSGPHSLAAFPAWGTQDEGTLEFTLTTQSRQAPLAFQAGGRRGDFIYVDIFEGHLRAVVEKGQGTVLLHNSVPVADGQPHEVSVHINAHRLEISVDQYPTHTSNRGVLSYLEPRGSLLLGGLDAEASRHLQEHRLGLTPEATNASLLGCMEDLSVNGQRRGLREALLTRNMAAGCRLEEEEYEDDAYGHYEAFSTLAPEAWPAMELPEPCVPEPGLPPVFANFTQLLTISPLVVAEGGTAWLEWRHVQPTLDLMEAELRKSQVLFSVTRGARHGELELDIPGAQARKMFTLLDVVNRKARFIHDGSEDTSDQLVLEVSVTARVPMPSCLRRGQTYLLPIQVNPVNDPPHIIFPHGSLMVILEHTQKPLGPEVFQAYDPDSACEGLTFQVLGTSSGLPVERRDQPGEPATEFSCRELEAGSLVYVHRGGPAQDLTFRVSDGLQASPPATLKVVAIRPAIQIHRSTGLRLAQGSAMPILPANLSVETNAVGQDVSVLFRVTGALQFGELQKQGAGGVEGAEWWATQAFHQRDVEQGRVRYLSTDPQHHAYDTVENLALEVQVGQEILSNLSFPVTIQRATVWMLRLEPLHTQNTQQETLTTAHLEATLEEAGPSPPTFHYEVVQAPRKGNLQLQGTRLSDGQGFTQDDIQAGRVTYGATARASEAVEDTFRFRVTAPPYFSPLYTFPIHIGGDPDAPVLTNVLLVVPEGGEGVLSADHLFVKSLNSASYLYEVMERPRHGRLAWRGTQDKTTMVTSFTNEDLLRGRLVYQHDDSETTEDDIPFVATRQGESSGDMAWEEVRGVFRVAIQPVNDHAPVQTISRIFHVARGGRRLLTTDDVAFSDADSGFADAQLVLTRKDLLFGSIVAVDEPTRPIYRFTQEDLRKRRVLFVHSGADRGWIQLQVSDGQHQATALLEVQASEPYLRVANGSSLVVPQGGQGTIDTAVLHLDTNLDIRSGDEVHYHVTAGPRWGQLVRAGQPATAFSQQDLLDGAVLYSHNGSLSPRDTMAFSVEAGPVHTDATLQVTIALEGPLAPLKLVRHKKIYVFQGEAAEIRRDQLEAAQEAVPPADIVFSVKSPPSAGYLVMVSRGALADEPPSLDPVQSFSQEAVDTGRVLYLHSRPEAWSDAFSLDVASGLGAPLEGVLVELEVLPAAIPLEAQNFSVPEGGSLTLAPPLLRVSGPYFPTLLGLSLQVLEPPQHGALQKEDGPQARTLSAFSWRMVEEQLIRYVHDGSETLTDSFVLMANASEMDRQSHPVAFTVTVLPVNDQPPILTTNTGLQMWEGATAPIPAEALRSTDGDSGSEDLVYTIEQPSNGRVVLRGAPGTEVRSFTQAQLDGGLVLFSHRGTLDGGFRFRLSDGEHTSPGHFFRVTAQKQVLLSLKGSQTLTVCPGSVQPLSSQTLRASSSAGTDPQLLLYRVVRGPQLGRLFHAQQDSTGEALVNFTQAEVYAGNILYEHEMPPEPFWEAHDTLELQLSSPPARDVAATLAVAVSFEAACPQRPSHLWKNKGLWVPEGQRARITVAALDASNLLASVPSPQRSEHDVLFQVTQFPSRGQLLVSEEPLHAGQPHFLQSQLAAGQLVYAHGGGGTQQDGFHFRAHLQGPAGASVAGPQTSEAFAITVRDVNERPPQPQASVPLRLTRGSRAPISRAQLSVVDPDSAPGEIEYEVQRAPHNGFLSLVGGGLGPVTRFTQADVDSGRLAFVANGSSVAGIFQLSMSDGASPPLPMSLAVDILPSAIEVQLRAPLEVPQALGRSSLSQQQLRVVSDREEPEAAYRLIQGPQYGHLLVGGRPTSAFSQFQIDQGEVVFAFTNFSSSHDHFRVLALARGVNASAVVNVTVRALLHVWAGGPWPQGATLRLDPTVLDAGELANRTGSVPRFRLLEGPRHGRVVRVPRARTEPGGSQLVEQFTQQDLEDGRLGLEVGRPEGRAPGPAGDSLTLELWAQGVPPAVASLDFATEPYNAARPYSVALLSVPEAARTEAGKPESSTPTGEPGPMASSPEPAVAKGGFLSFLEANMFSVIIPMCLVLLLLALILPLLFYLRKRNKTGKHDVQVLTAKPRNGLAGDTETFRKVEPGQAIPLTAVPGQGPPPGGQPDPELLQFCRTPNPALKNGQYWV
For B1, the “EC50 of T cell-mediated killing (LDH release), MV-3 cells, human PBMCs E:T 10:1, 27 h” value was ~0.0117 nM and the “EC50 of T cell-mediated killing (LDH release), WM266-4 cells, human PBMCs E:T 10:1, 26 h” value was 0.0129 nM. For B2, the “EC50 of T cell-mediated killing (LDH release), MV-3 cells, human PBMCs E:T 10:1, 27 h” value was ~0.0822 nM and the “EC50 of T cell-mediated killing (LDH release), WM266-4 cells, human PBMCs E:T 10:1, 26 h” value was 0.0168 nM.

The binders below were run against T1, hu-MCSP(D3 domain)-avi-his (assay: SPR ProteOn XPR36, 25 C; Fab captured via anti-human F(ab')2, MCSP D3 as analyte).
Method: Briefly, carboxymethylated dextran biosensor chips (CM5, GE Healthcare) were activated with N-ethyl-N′-(3-dimethylaminopropyl)-carbodiimide hydrochloride (EDC) and N-hydroxysuccinimide (NHS) according to the supplier's instructions. Anti-human F(ab′)2 fragment specific capture antibody was diluted with 10 mM sodium acetate, pH 5.0 at 50 μg/ml before injection at a flow rate of 10 μl/minute to achieve approximately up to 10.000 response units (RU) of coupled capture antibody. Following the injection of the capture antibody, 1 M ethanolamine is injected to block unreacted groups. For kinetics measurements, Fabs from bacterial supernatant or purified Fabs were injected at a flow rate of 10 μl/minute for 300 s and a dissociation of 300 s for capture baseline stabilization. […] The surface of the sensorchip was regenerated by injection of glycine pH 1.5 for 30 s at 90 μl/min followed by injection of NaOH for 20 s at the same flow rate. Association rates (kₒₙ) and dissociation rates (koff) were calculated using a simple one-to-one Langmuir binding model (ProteOn XPR36 Evaluation Software or Scrubber software (BioLogic)) by simultaneously fitting the association and dissociation sensorgrams. The equilibrium dissociation constant (KD) was calculated as the ratio koff/kₒₙ.
B3 showed a Kd of 5 nM. For B4, the Kd was 0.4 nM. Binder B5 has a Kd of 0.3 nM. B6 gave a Kd of 0.7 nM. Binder B7 has a Kd of 0.6 nM. B8 gave a Kd of 0.02 nM. In the case of B9, the Kd is reported as 0.7 nM. B10 gave a Kd of 2 nM.
